Assay [1] deals with T1, HLA-A*02:01 on T2 cells without peptide loading (human).
T1 construct: TAP-deficient T2 cells, no peptide added; also called No peptide; T2 cells with no peptide loaded
Description: FACS, peptide-pulsed T2 cells. (Flow cytometry measures light scatter and fluorescence of single cells or particles in a stream.)

The target of assay [2] is ESO157 A5 peptide (…)/HLA-A*02:01 complex on T2 cells (human). The assay is described as follows: FACS, peptide-pulsed T2 cells.
Assay [3] addresses ESO157 A3 peptide (…)/HLA-A*02:01 complex on T2 cells (human). The assay is described as follows: FACS, peptide-pulsed T2 cells.
For assay [4], the target named is ESO157 A1 peptide (…)/HLA-A*02:01 complex on T2 cells (human). The assay is described as follows: FACS, peptide-pulsed T2 cells.
Assay [5] concerns the target ESO157 A4 peptide (…)/HLA-A*02:01 complex on T2 cells (human). Description: FACS, peptide-pulsed T2 cells.
Assay [6] concerns the target ESO157 A7 peptide (…)/HLA-A*02:01 complex on T2 cells (human). The assay is described as follows: FACS, peptide-pulsed T2 cells.
Assay [7] has as its target ESO157 A8 peptide (…)/HLA-A*02:01 complex on T2 cells (human). The assay is described as follows: FACS, peptide-pulsed T2 cells.
The next assay concerns the target T2, Bio-C9V mutant.
T2 construct: also called biotinylated ESO157 C9V/HLA-A*02:01 complex monomer
Description: phage ELISA: streptavidin plate coated with biotinylated peptide/HLA-A*02:01 monomer, phage detected with HRP-conjugated anti-M13 antibody, absorbance at 450 nm. (In general: An ELISA detects its analyte on a solid surface through an enzyme-linked reagent.)

Assay [8] addresses T3, ESO157 wild type peptide (…)/HLA-A*02:01 complex on cells (human).
T3 construct: also called ESO157-loaded T2 cells
Description: FACS, peptide-pulsed T2 cells.

The target in assay [9] is biotinylated recombinant ESO157/HLA-A*02:02 complex (human). The assay is described as follows: BLI (Octet QK), biotinylated pMHC on streptavidin sensor, BsAb 10 ug/mL.
Assay [10] addresses biotinylated recombinant ESO157/HLA-A*02:06 complex (human). The description is as above.
The target in assay [11] is T4, ESO157 homolog 2 peptide (…)/HLA-A*02:01 on T2 cells (human).
T4 construct: also called ESO157 H2
The assay is described as follows: FACS, phage on T2 cells, 50 ug/ml peptide.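 Also: binding of phage clones to peptide/MHC complexes detected by flow cytometry after staining with an anti-M13 antibody.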

Assay [12] concerns the target T5, ESO157 homolog 5 peptide (…)/HLA-A*02:01 on T2 cells (human).
T5 construct: also called ESO157 H5
Description: FACS, phage on T2 cells, 50 ug/ml peptide.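 Also: binding of phage clones to peptide/MHC complexes detected by flow cytometry after staining with an anti-M13 antibody.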

For assay [13], the target named is T6, ESO157 homolog 3 peptide (…)/HLA-A*02:01 on T2 cells (human).
T6 construct: also called ESO157 H3
Description: FACS, phage on T2 cells, 50 ug/ml peptide.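 Also: binding of phage clones to peptide/MHC complexes detected by flow cytometry after staining with an anti-M13 antibody.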

The target in assay [14] is T7, ESO157 homolog 1 peptide (…)/HLA-A*02:01 on T2 cells (human).
T7 construct: also called ESO157 H1
The assay is described as follows: FACS, phage on T2 cells, 50 ug/ml peptide.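 Also: binding of phage clones to peptide/MHC complexes detected by flow cytometry after staining with an anti-M13 antibody.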

Assay [15] deals with T8, ESO157 homolog 4 peptide (…)/HLA-A*02:01 on T2 cells (human).
T8 construct: also called ESO157 H4
The assay is described as follows: FACS, phage on T2 cells, 50 ug/ml peptide.

By Kd is commonly meant the constant that tells how readily two partners part at equilibrium.

B1: phage clone #146, anti-ESO157/HLA-A*02:01 scFv displayed on phage (scFv, V domains shown)
VH: EVQLVQSGAEVKKPGASVKVSCKVSGYTLTDLPMHWVRQAPGKGLEWMGGFDPEDGEIIYAQKFQGRVTMTEDTFTDTAYVELSSLRSEDTAVYYCARYVPYVSYSDSWGQGTLVTVSS
VL: not shown
With B1, the MFI in [1] stood at 132; in assay [2] it was 180; in [3], 181; in assay [4] it was 9300; in assay [5], 3200; in [6], 333. The MFI in assay [7] turned out to be 18600. Besides, the binding result in the assay with Bio-C9V mutant is “binds”.

B2: phage clone #76, anti-ESO157/HLA-A*02:01 scFv displayed on phage (scFv, V domains shown)
VH: EVQLVQSGAEVKKPGSSVKVSCKASGGTFSSYAISWVRQAPGQGLEWMGGIIPIFGTANYAQKFQGRVTITADESTSTAYMELSSLRSEDTAVYYCARYDSYVYDEWGQGTLVTVSS
VL: QSVVTQPPSLSGAPGQRVTISCNGSGSNIGAGYDVHWYQQLPGTAPKLLIYGNSNRPSGVPDRFSGSKSGTSASLAITGLQAEDEADYYCQSYDSSLSGWGIFGGGTKLTVLG
Turning to B2, the MFI in [1] was found to be 131; in [8], 7460; in [2], 160; in [3], 42900; in [4] it was 14600; in [5] it was 191. Further, the MFI in [6] was found to be 6200; in assay [7], 12700. The binding result in the assay with Bio-C9V mutant is listed as “binds”.

B3: ESO157 BsAb #116 (anti-ESO157/HLA-A*02:01 scFv x anti-human CD3epsilon scFv, single chain) (bispecific antibody)
chain: QSVLTQPPSVSAAPGQKVTISCSGSSSNIGNNYVSWYQQLPGTAPKLLIYDNNKRPSGIPDRFSGSKSGTSATLGITGLQTGDEADYYCGTWDSSLSAEVFGTGTKVTVLGSRGGGGSGGGGSGGGGSLEMAQVQLVQSGPEVKKPGASMKVSCKASGYTFTKYGISWVRQAPGQGLEWMGWISADSGKTSYAQNLQGRVSLTIDTSTATAYMELRSLRSDDTAVYYCARDDDSWGQGTLVTVSS
For B3, the Kd in assay [9] was 1.8 nM; in assay [10], 0.8 nM.

B4: phage clone #35, anti-ESO157/HLA-A*02:01 scFv displayed on phage (scFv, V domains shown)
VH: QVQLVQSGAEVKKPGSSVKVSCKASGDTFSSYSISWVRQAPGQGLEWMGRIIPILGIANYAQKYQGRVTLSADKSTSTSYMELNSLRSEDTAVYYCARDWSYSIDYWGQGTLVTVSS
VL: QSVVTQPPSVSAAPGQKVTISCSGSSSNIGNNYVSWYQQLPGTAPKLLIYDNNKRPSGIPDRFSGSKSGTSATLGITGLQTGDEADYYCGTWDSSLSAWVFGGGTKLTVLG
notes: also called parental phage clone #35
B4: the MFI in assay [11] amounted to 17.6; in [12], 13.4; in [8], 17500; in assay [2], 163; in [3], 10200; in [4] it was 42400. Moreover, the results for the MFI in assay [5] and in assay [6] were 155 and 419, respectively.

B5: phage clone 35-20, affinity maturation variant of clone #35 (scFv, V domains shown)
VH: QVHLVQSGAEVKKPGSSVKVSCKASGDTFSSYYISWVRQAPGQGLEWMGRIIPILGIANYAQKYQGRVTLSADKSTSTSYMELNSLRSEDTAVYYCARDWSYSIDYWGQGTLVTVSS
VL: QSVVTQPPSVSAAPGQKVTISCSGSSSNIGNNYVSWYQQLPGTAPKLLIYDNNKRPSGIPDRFSGSKSGTSATLGITGLQTGDEADYYCGTWDSSLSAWVFGGGTKLTVL
As to B5, the MFI in assay [13] was determined as 20.8; in assay [12], 19; in assay [14], 21; in assay [15], 20.6.

B6: phage clone 35-14, affinity maturation variant of clone #35 (scFv, V domains shown)
VH: QVQLVQSGAEVKKPGSSVKVSCKASGDTFSSYYISWVRQAPGQGLEWMGRIIPILGIANYAQKYQGRVTLSADKSTSTSYMELNSLRSEDTAVYYCAREWSYSIDYWGQGTLVTVSS
VL: QSVVTQPPSVSAAPGQKVTISCSGSSSNIGNNYVSWYQQLPGTAPELLIYDNNKRPSGIPDRFSGSKSGTSATLGITGLQTGDEADYYCGTWDSSLSAWVFGGGTKLTVL
For B6, the MFI turned out to be 20 in assay [13]; 19.8 in assay [11]; 18.8 in [12]; 20.8 in assay [14]; 19.5 in [15].

B7: phage clone 35-16, affinity maturation variant of clone #35 (scFv, V domains shown)
VH: QVQLVQSGAEVKKPGSSVKVSCKASEDTFSSYYISWVRQAPGQGLEWMGRIIPTLGIANYAQKYQGRVTLSADKSTSTSYMELNSLRSEDTAVYYCARDWSYSIDYWGQGTLVTVSS
VL: QSVVTQPPSVSAAPGQKVTISCSGSSSNIGNNYVSWYQQLPGTAPKLLIYDNNKRPSGIPGRFSGSKSGTSATLGITGLQTGDEADYYCGTWDSSLSAWVFGGGTKLTVLG
For B7, the MFI in assay [13] came out at 18.7; in assay [12], 18.7; in assay [15], 19.3.

B8: phage clone 35-2, affinity maturation variant of clone #35 (scFv, V domains shown)
VH: QVQLVQSGAEVKKPGSSVKVSCKASGDTFSSYYISWVRQAPGQGLEWMGRIIPILGIANYAQKYQGRVTLSADKSTSTSYMELNSLRSEDTAVYYCARDWSYSIDYWGQGTLVTVSS
VL: QSVVTQPPSVSAAPGQKVTISCSGSSSNIGNNYVSWYQQLPGTAPKLLIYDNNERPSGIPDRFSGSKSGTSATLGITGLQTGDEADYYCGTWDSSLSAWVFGGGTKLTVLG
Consider B8, for which the MFI came to 20.8 in assay [11], 18.8 in [12] and 21 in assay [15].

B9: phage clone 35-15, affinity maturation variant of clone #35 (scFv, V domains shown)
VH: QVQLVQSGAEVKKPGSSVKVSCKASGDTFSSYYISWVRQAPGQGLEWMGRIIPILGIANYAQKYQGRVTLSADKSTSTSYMELNSLSSEDTAVYYCALDWSYSIDYWGQGTLVTVSS
VL: QSVVTQPPSVSAAPGQKVTISCSGSSSNIGNNYVSWYQQLPGTAPKLLIYDNNKRPSGIPDRFSASKSGTSATLGITGLQTRDEADYYCGTWDSSLSAWVFGGGTKLTVLG
As to B9, the MFI in assay [13] amounted to 35.4; in [12] it was 31.8; in [14], 36.2; in [15], 33.8.

B10: phage clone 35-12, affinity maturation variant of clone #35 (scFv, V domains shown)
VH: QVPLVQSGAEVKKPGSSVRVSCKASGDTFSNYSISWVRQAPGQGLEWMGRIIPILGIANYAQKYQGRVTLSADKSTSTSYMELNSLRSEDTAVYYCARDWSYSIDYWGQGTLVTVSS
VL: QSVVTQPPSVSAAPGQKVTISCSGSSSNIGNNYVSWYQQLPGTAPKLLIYDNNKRPSGIPDRFSGSKSGTSTTLGITGLQTGDEADYYCGTWDSSLSAWVFGGGTKLTVLG
Turning to B10, the MFI in assay [13] amounted to 18.6; in assay [11], 19.2; in assay [12], 17.7; in assay [14], 19.3; in assay [15], 18.7.

B11: phage clone 35-8, affinity maturation variant of clone #35 (scFv, V domains shown)
VH: QVPLVQSGAEVKKPGSSVKVSCKASGDTFSSYYISWVRQAPGQGLEWMGRIIPILGIANYAQKYQGRVTLSADKSTSTSYMELNNLRSEDTAVYYCARDWSYSIDYWGQGTLVTVSS
VL: QSVVTQPPSVSAAPGQKVTISCSGSSSNIGNNYVSWYQQLPGTAPKLLIYDNNKRPSGIPDRFSGSKSGTSATLGITGLQTGDEADYYCGTWDSSLSAWVFGGGTKLTVL
B11: the results for the MFI in assay [11], in assay [12] and in assay [15] were 18.7, 17.8 and 19.6, respectively.

B12: phage clone 35-19, affinity maturation variant of clone #35 (scFv, V domains shown)
VH: QEQLVQSGAEVKKPGSSVKVSCKASGDTFSSYYISWVRQAPGQGLEWMGRIIPILGIANYAQKYQGRVTLSADKSTSTSYMELNSLRSEDTAVYYCARDWSYSIDYWGQGTLVTVSS
VL: QSVVTQPPSVSAAPGQKVTISCSGSISNIGNNYVSWYQQLPGTAPKLLIYDNNMRPSGIPDRFSGSKSGTSATLGITGLQTGDEADYYCGTWDSSLSAWVFGGGTKLTVLG
notes: also called variant 35-19
On to B12, for which the MFI in assay [13] was found to be 21.7; in assay [11] it was 21.9; in assay [12] it was 60.2; in [14], 20.7; in assay [15] it was 21.6.

B13: phage clone 35-3, affinity maturation variant of clone #35 (scFv, V domains shown)
VH: QVQLVQSGAEVKKPGSSVKVSCKASGDTFSSYYISWVRQAPGQGLEWMGRIIPILGIANYAQKYQGRVTLSADKSTSTSYMELNSLRSEDTAVYYCAREWSYSIDYWGQGTLVTVSS
VL: QSVVTQPPSVSAAPGQKVTISCSGSSSNIGNNYVSWYQQLPGTAPKLLIYDNNKRPSGIPDRFSGSKSGTSATLGITGLRTGDEADYYCGTWDSSLSAWVFGGGTKLTVLG
For the molecule B13, the MFI in assay [13] came to 18.9; in assay [11], 18.4; in [12], 18.5; in [14] it was 18.8; in assay [15] it was 19.

The values above are taken from patent US20190382504A1 (EUREKA THERAPEUTICS, published 2019).
